Values of other authors, collected in publication PMC4518304.

Molecular target: Asp26 (UniProt position 27, GAILVDFWAEW)
Test: NMR
Conditions: reduced thioredoxin (per title of ref. 51)

## Thioredoxin (thioredoxin 1) (Escherichia coli)
  pKa: 7.3–7.5
